Source: the supplement of paper PMC12042874
± gives the uncertainty stated by the source.

Assay: amyloid nucleation score (Sup35N fusion, yeast selection) (log enrichment); library NNK2; higher = more nucleation; inactive = no reads after selection
In short: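 The nucleation score, computed with DiMSum, is the log enrichment of output over input reads, centred on the mode score of non-aggregating sequences. Sequences with under 100 input reads were dropped. Reads were generated by Illumina sequencing of plasmid inserts from psi-negative yeast with Sup35N fused to peptides of 20 random codons, induced with 100 μM copper sulfate for 24 hours and grown 7 days at 30°C on medium lacking adenine and uracil.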

| Substance | amyloid nucleation score |
| --- | --- |
| QWVVLVD | -0.016 ± 0.65 |
| QYCARAR | 1.87 ± 0.4 |
| QYDSSFT | -0.165 ± 0.55 |
| QYGVLSSETLGCTVFKWYVS | 0.468 ± 0.6 |
| QYRCGRRLVQRSEVVIVPVC | inactive |
| QYSTSV | -0.548 ± 0.61 |
| QYTRDFVRGTSQF | -0.949 ± 1.1 |
| QYVSLYAVKRIVEIVQDKCA | 0.012 ± 0.39 |
| RAATYYQFVVLVCKQSDFKR | 5.77 ± 0.095 |
| RALRVRILYCEARRMCFMAN | 0.236 ± 1.1 |
| RANGLSFCTSLLLGEYLNNG | 2.63 ± 0.078 |
| RANGSSYEREVA | 0.819 ± 0.47 |
| RARFWINGFRVL | inactive |
| RATPTSLSIAMFCLFGHALL | 5.87 ± 0.079 |
| RATRLIRGTWYKKLKRVARI | 1.32 ± 0.18 |
| RATSVSILVQLGETLFCEYT | 0.56 ± 0.2 |
| RAVTRVKHICLSATRSCDVE | 0.523 ± 0.21 |
| RAYPNLENFLLWRMSNSYLC | -0.542 ± 0.63 |
| RCEAAMWMLASYRVCVTLSC | -0.525 ± 1.1 |
| RCGKCGLYS | 0.067 ± 0.5 |
| RCIDFDSSCASTNYGSVLWA | 1.09 ± 0.38 |
| RCLLTYSVEYWRIFGTSPDS | 0.157 ± 0.5 |

| Substance | amyloid nucleation score |
| --- | --- |
| RCLPSIFDPMRVTRVLPELY | -0.017 ± 1 |
| RCTRSR | 3.4 ± 0.12 |
| RCYGVRTHGNLKQIMTKMTE | 0.602 ± 0.24 |
| RDFYRWNMQ | 3.8 ± 0.069 |
| RDIMR | 0.57 ± 0.5 |
| RDLASSSS | -1.1 ± 0.41 |
| RDMGPLVNAPVA | 0.282 ± 0.46 |
| RDPVFIT | -1.44 ± 0.76 |
| RDVFDMSSPTIAQCNVVRGM | -0.448 ± 0.32 |
| RDVFTFYNKGEFERCQTLVY | 0.092 ± 1.1 |
| RDVVSLGLQEGNSRMRHTGG | 0.82 ± 0.23 |
| RDWRVFIYFMGNVVLDY | 5.59 ± 0.08 |
| REFLIYFCFQIMCCRTYGPA | 5.125 ± 0.046 |
| RERMRY | 1.64 ± 0.18 |
| RFAFFVYPTYMRMTVTVLSY | inactive |
| RFGFRSGPTSSRMWYSFLEF | 3.15 ± 0.11 |
| RFHFSDWR | inactive |
| RFLEALTVRHCSPL | 4.71 ± 0.06 |
| RFLTCGNFMR | 0.214 ± 0.74 |
| RFPVGRLFWQEFRYSDQGVA | 1.17 ± 0.23 |
| RFQWSCEVRESPPLNVDLMG | 1.41 ± 0.44 |
| RFRWTSVSRVKGCFNKMYPS | 0.1 ± 0.3 |

| Substance | amyloid nucleation score |
| --- | --- |
| RFSLYNLIIEVSAVVEFLWT | inactive |
| RFVIVIPQFYYVYFLRRSWT | -1.24 ± 1 |
| RFWLNCCWRTCSTTFLNWMK | 0.472 ± 0.6 |
| RFYRSVNFKLYLVA | inactive |
| RGADIAVRNFFDYQRRRWCN | 0.222 ± 0.44 |
| RGCIGK | -0.161 ± 0.65 |
| RGFVLETLWSMTIVVQKFNL | inactive |
| RGGVVNCRFRAHFMWL | 5.779 ± 0.041 |
| RGLLLSTMRGHIDSLRLS | inactive |
| RGSFYNGRS | 0.049 ± 0.76 |
| RGTAIKILYL | 5.46 ± 0.069 |
| RGVGYYRGSICTWFNWAAMW | 1.83 ± 0.16 |
| RGVYKHSPHLIT | -0.127 ± 1.1 |
| RGYACCL | -0.574 ± 0.48 |
| RGYDLVGSIIFSMQKRLRKK | -1.24 ± 1.1 |
| RHADF | 1.39 ± 0.27 |
| RHGMNGRLTFLASTYSASRL | 0.349 ± 0.22 |
| RHKYMIKVILRHFTFIIIGS | -0.05 ± 0.62 |
| RHRKMS | -0.496 ± 0.23 |
| RIEIRQSLEDRLRAVSMAET | 1.64 ± 0.3 |
| RIFVIGNFVDCWLRLWT | 0.256 ± 0.65 |
| RIITGPGWTVAGSPVRGVRG | 1.68 ± 0.19 |

| Substance | amyloid nucleation score |
| --- | --- |
| RIKMGSSGNLCFIWSMHMYD | 6.496 ± 0.044 |
| RILLRRAKFGSR | 0.432 ± 0.21 |
| RIMTFFVMPDSRRRVDHNQV | 0.074 ± 1 |
| RINGRRWGFTWVASGLEYFG | 1.87 ± 0.11 |
| RINIFLRITFHNLLQLNRSG | 6.04 ± 0.081 |
| RISKRAHECLIMQG | -0.108 ± 1.1 |
| RISLERGNDFVTWVVYMKWA | -0.081 ± 0.34 |
| RIVCSNSWR | -0.113 ± 1.1 |
| RIVMKRRFYCKSWSLIVHPG | -0.826 ± 0.28 |
| RIYLGRQYYRSEGLKQLVNG | 0.151 ± 0.63 |
| RKEVCTVRNLHSRFRGGAIR | -0.119 ± 0.55 |
| RKLIFVMTRRLGRSSRTVLM | 0.112 ± 1.1 |
| RKPLLHLVRFRWNNPLDNE | -1.03 ± 0.76 |
| RKSYPRIYVHPSWKCVGDRY | 0.066 ± 0.41 |
| RKTLVGDNLNEGVKSWGWSR | -1.29 ± 0.45 |
| RKWQED | 0.488 ± 0.47 |
| RLAVVLVPRIGYSSKSSETR | 1.11 ± 0.34 |
| RLCANDLIIGVEMGEGVFDY | 1.1 ± 0.31 |
| RLDMYGLLINWSSVCLYNNI | 0.257 ± 0.21 |
| RLEALRCLSYITSSSLYRCP | 0.163 ± 0.41 |
| RLEEDGSD | 7.125 ± 0.067 |
